Target: SARS-CoV-2 Delta spike-ferritin fusion protein (Delta spike-ferritin VLP antigen) (SARS-CoV-2 (Delta variant) | Helicobacter pylori) (UniProt P0DTC2)
Assay: cryo-EM structure

Substance: SARS-CoV-2 Delta spike-ferritin fusion protein (Delta spike-ferritin VLP antigen) (from UniProt P0DTC2 14-1163)
- stoichiometry N: 24
